Here are results for one molecule from publication PMC9330781.

The target of this test is Recombinant blood coagulation factor VIII (human). To be noted: scale: times higher molar excess over FVIII.

B1: Thrombin-cleaved iKM33-v2 (mixture of dissociated VH and VL) (protein)
VH: EVQLVESGGGVVQPGRSLRLSCVDSGLTFSSYGMHWVRQAPGAGLEWVAVISYDGNDKYYADSVKGRFAISRDNAKNTLYLQMNSLTIEDTAVYYCAKDLIESNIAEAFWGQGTLVTVSS
VL: DIQMTQSPSSLSASVGDTVTIACRASRDIRNDLAWYQQKPGKAPKLLIYATSRLQSGVPSRFSGSGSFTDFTLTINSLQPDDSATYYCLQDSDYPLTFGGGTKVDIK
With B1, the FVIII activity in the chromogenic substrate (CS) assay; thrombin-cleaved scFv 1000 to 0.24 nM with 145 pM FVIII; molar excess needed for the same inhibition as the non-cleaved scFv came out at 100.
